Patent US20230279121A1

Tests used:
human EGFR (human) = human EGFR (human) (UniProt P00533); assay: SPR
[1] = target: Rhesus macaque EGFR (Rhesus macaque) (UniProt P55245); assay: SPR
[2] = target: recombinant human EGFR-His (human) (UniProt P00533); assay: SPR, Biacore 8K, 37 C; protein captured on anti-hFc IgG chip, EGFR-His injected; N = 4

Kd (human EGFR (human)) [nM]	koff (human EGFR (human)) [s⁻¹]	kon (human EGFR (human)) [M⁻¹ s⁻¹]	Kd [1] [nM]	koff [1] [s⁻¹]	kon [1] [M⁻¹ s⁻¹]	Kd [2] [nM]	koff [2] [s⁻¹]	kon [2] [M⁻¹ s⁻¹]	Molecule
3.38	0.00099	293000	5.36	0.00112	209000				PANI-H_S62R-L_F87Y-L_D92R (scFv)
						2.36	0.000745	316000	EGFR-Protein-4 (bispecific antibody, part only; not given: unrelated Fab, Fc and junctions, not shown: another chain or arm of the molecule; a dimerising Fc or GST) scFv: DIQMTQSPSSLSASVGDRVTITCQASQDISNYLNWYQQKPGKAPKLLIYDASNLETGVPSRFSGSGSGTDFTFTISSLQPEDIATYYCQHFRHLPLAFGCGTKVEIKGGGGSGGGGSGGGGSGGGGSQVQLQESGPGLVKPSETLSLTCTVSGGSVSSGDYYWTWIRQSPGKCLEWIGHIYYSGNTNYNPSLKSRLTISIDTSKTQFSLKLSSVTAADTAIYYCVRDRVTGAFDIWGQGTMVTVSS
